In article PMC4173154 (Genes & Development, 2014):

Target: native Drosophila core histones (Drosophila, UniProt P84051 1-124; P02283 1-123; P02299 1-136; P84040 1-103)
Test: co-sedimentation

B1: recombinant Drosophila NLP, C-terminal 6-His tag (natural protein)
chain: MAEESFYGVTLTAESDSVTWDVDEDYARGQKLVIKQILLGAEAKENEFNVVEVNTPKDSVQIPIAVLKAGETRAVNPDVEFYESKVTFKLIKGSGPVYIHGHNIKDDVEVVDMEEDDEEDDVAEDEEDEHPKKRAKIENAADGKNAKNNKKK
binding result: binds
